Assay results reported in US20120088237.
Where a chain is given by its changes, count along the chain named.

Experiments:
[1] = system: T1, BstNI (Bacillus stearothermophilus); test: cleavage_in_vitro; conditions: 5mC at inner (second) C of CCWGG (dcm); NEB1 and NEB4 0.1; NEB2 0.5; NEB3 2; 60 C 1 h, crude lysate
T1 sequence: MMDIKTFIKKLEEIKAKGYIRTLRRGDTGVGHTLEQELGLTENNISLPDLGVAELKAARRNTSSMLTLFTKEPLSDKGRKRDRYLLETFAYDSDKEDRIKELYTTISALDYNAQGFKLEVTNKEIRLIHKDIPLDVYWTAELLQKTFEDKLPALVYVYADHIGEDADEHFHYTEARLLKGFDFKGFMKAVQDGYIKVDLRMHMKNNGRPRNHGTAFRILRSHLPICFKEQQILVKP

[2] = system: T2, BstNI R200C R200C (Bacillus stearothermophilus); test: cleavage_in_vitro; conditions: 5mC at inner (second) C of CCWGG (dcm); NEB1, NEB2 and NEB4 each 100; NEB3 10; 60 C 1 h, crude lysate
T2 sequence: T1 sequence with R200C

With “CCWGG (double strand) [dcm+ plasmid pBC4 (C5mCWGG)]” as the substance, how does the relative cleavage in vitro (fold (dcm+/dcm- cleavage)) [1] read?
The relative cleavage in vitro (fold (dcm+/dcm- cleavage)) was 0.1.

And the relative cleavage in vitro (fold (dcm+/dcm- cleavage)) [2]?
Its relative cleavage in vitro (fold (dcm+/dcm- cleavage)) is 100.
